Assay results from patent publication US11976099B2, “Compositions and methods for treatment of bone associated diseases” (THE NATIONAL INSTITUTE FOR BIOTECHNOLOGY IN THE NEGEV LTD., priority 2016, dated 2024).

B1: 5.6: bispecific M-CSFRGD variant from sort five; M-CSFM loop replaced by XXXRGDXXX motif; binds c-FMS and αvβ3 integrin (protein)
chain: EEVSEYCSHMIGSGHLQSLQRLIDTYPRGDMCSITFEFVDQEQLKDPVCYLKKAFLLVQDIMEDTMRFRDNTPNAIAIVQLQELSLRLKSCFTKDYEEHDKACVRTFYETPLQLLEKVKNVFNETKNLLDKDWNIFSKNCNNSFAECSSQGHERQSEGS
modifications: left off: small tags and cut ends
B2: M-CSFM: 158 amino acid M-CSF with cysteine at position 31 replaced by serine (SEQ ID NO: 2) (protein)
chain: EEVSEYCSHMIGSGHLQSLQRLIDSQMETSSQITFEFVDQEQLKDPVCYLKKAFLLVQDIMEDTMRFRDNTPNAIAIVQLQELSLRLKSCFTKDYEEHDKACVRTFYETPLQLLEKVKNVFNETKNLLDKDWNIFSKNCNNSFAECSSQGHERQSEGS

Columns and labels:
αvβ5 integrin = αvβ5 integrin (Homo sapiens, UniProt P06756+P18084, DEL720-799); assay: SPR integrin specificity, immobilized αvβ5; assay type: binding; details: variants at 1 μM
Sequence of αvβ5 integrin (P06756 31-992 limits assumed, stated change not applied): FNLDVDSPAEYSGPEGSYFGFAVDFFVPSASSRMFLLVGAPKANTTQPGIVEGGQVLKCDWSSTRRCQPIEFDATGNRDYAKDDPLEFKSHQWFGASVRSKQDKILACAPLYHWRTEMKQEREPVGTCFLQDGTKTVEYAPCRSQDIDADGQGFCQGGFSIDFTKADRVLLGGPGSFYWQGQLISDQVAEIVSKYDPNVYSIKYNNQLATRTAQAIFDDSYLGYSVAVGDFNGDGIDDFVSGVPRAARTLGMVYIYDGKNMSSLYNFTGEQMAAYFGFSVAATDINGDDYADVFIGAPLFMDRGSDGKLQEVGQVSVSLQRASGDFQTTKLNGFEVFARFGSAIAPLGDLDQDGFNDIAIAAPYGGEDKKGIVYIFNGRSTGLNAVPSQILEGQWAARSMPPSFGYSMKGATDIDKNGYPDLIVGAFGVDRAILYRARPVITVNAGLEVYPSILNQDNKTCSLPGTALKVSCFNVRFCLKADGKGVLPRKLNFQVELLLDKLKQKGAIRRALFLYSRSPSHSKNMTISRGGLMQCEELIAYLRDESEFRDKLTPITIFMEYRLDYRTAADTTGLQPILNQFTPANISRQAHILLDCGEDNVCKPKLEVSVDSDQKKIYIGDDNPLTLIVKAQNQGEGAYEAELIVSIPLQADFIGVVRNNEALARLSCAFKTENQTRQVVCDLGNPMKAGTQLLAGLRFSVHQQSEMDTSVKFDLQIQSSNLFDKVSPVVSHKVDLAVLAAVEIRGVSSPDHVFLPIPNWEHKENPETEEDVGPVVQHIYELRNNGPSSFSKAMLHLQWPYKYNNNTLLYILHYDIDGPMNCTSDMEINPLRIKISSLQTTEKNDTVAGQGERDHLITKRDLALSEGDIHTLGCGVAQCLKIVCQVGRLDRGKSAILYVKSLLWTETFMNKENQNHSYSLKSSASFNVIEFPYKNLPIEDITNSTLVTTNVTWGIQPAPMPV
Sequence of αvβ5 integrin (P18084 24-719 limits assumed, stated change not applied): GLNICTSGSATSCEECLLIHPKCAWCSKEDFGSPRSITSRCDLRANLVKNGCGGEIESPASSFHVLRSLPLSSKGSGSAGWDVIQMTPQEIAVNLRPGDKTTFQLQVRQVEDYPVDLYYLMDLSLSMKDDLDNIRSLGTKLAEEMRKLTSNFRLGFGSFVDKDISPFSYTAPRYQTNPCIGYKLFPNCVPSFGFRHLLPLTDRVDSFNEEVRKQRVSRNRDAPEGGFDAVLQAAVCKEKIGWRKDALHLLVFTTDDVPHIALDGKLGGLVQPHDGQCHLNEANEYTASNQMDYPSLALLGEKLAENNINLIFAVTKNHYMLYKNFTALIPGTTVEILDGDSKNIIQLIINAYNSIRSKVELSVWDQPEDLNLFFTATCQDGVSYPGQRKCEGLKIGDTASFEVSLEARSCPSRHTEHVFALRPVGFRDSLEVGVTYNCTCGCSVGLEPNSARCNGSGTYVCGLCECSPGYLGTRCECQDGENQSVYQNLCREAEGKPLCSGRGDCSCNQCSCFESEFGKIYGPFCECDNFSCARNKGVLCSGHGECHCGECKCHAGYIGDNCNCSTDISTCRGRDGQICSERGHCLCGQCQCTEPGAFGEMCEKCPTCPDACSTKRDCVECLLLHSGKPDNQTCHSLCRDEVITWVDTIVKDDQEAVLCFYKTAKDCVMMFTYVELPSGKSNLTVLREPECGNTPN
Protocol: Determination of binding of the soluble purified proteins (M-CSFM and M-CSFRGD variants) to c-FMS and αvβ3 integrin was performed on a ProteOn XPR36 (Bio-Rad, USA). […] Unbound esters were deactivated with 1 M ethanolamine HCl at pH 8.5, and the temperature was set at 25° C. Then, the chip was rotated, and the human c-FMS soluble proteins (Sino Biological, China) were allowed to flow over the chip at 6 different concentrations (0, 12.5, 25, 50, 100 and 200 nM) at a flow rate of 50 μl/min for 490 s, followed by dissociation for 600 s in PBS+0.005% Tween (PBST). For determining αvβ3 integrin binding, the chip was regenerated using 50 mM NaOH at a flow rate of 100 μl/min and analyzed again for c-FMS binding to make sure that the chip had been regenerated. After making sure the chip is regenerated, and different concentrations of […] proteins (0, 12.5, 25, 50, 100 and 200 nM) were allowed to flow over the chip. The interactions obtained were normalized to the initial protein binding RUs to the chip surface. Then, for each concentration, the KD was obtained from the equilibrium binding phase of the sensorgram. To determine the αvβ3 integrin specificity for each M-CSFRGD variant, a new chip was loaded with different RGD binding integrins, as follows: 8.5 μg of α3β1, 8.5 μg of α4β7, 6 μg of α5β1, 8.5 μg of αvβ5, and 8.5 μg of αvβ3 integrin and 3 μg of BSA as a negative control. […]

[1] = tested on: Murine bone marrow derived monocytes (BMMs); assay: Direct cell binding assay, flow cytometry, murine primary cells; assay type: cell-based, mouse; details: for direct cell binding: mouse primary cells, 1 μM, 2.5 μM and 7.5 μM
Protocol: Murine bone marrow derived monocytes (BMMs) were obtained by flushing the bone marrow from the femur and tibia of WT C57BL6 mice. The cells were treated with ACK red lysis buffer (Thermo Fisher Scientific, USA) and plated on bacterial culture dishes in αMEM growth medium (Biological Industries, Israel) containing recombinant murine M-CSF (40 ng/ml) (R&D systems, USA). The cells were incubated for 3 days at 37° C. under 5% CO2 to induce monocyte adhesion and proliferation. The plates were washed with PBS, the cells were detached using a cell scraper, and 10^5 cells were transferred to each well in a 96-well plate. The cells were washed twice with 200 μl of 0.1% PBSA. Binding was determined as described for labeled M-CSFM and the M-CSFRGD proteins. For murine c-FMS expression, anti-mouse CD115 (CSF-1R) (BioLegend, USA) was used at 1:50 concentration and detected with goat anti-rat (PE) antibody (Abcam, USA). For αvβ3 integrin expression, the Alexa Fluor® 488 anti-mouse/rat CD61 (BioLegend, USA) antibody was used as previously described. Samples were analyzed with Accuri C6 flow cytometry analyzer (BD Biosciences, USA). The experiment was repeated three times at each concentration.
Assays for direct cell binding were conducted on breast cancer cell line MDA-MB-231 and murine primary cells with flow cytometer. MDA-MB-231 was used because the cells express αvβ3 integrin and c-FMS on the cell membrane, a protein expression pattern that imitates the osteoclast state just before reaching full differentiation and maturation. […] Murine primary cells that were obtained from bone marrow were tested for binding without any induction of differentiation (t=0). Such cells express high levels of c-FMS and low levels of αvβ3 integrin (FIGS. 11A and 11B), a state that imitates an early osteoclast differentiation stage.

mature osteoclasts = assay: Actin ring formation in mature osteoclasts; assay type: cell-based, mouse; details: inhibitors 5 μM added to mature osteoclasts for 24 h; F-actin staining
Protocol: FIG. 23 are example pictures showing Actin ring formation in mature osteoclasts incubated with M-CSFRGD variants. Murine BMMs were allowed to differentiate into osteoclasts in the presence of M-CSF and RANKL for 72 h. Then, the cells were incubated for additional 24 h without (positive control) or with inhibitors (5 μM) followed by fixation and staining for F-actin and nuclei. Cells were able to form a solid actin ring (white arrowheads), scattered actin ring (white arrows) or amorphous actin distribution (barbed arrowheads). Pictures are representatives of 35 images acquired from five different wells per sample.
For a mature osteoclast to resorb bone properly, it must form unique structure termed “sealing zone”; this structure consists of an actin ring made from a dense actin mesh connected by adhesion complexes called podosomes. The formation of the actin ring involves several stages: at the beginning, podosomes are formed throughout the cell in a scattered manner, then groups of podosomes form small actin structures named belts and upon osteoclast maturation, the belts are moving to the cell periphery, cluster, and form the actin ring. Podosomes contain high levels of αvβ3 integrin which is essential for the formation of a proper actin ring with condensed podosome network. […]

Molecule | rank order of αvβ5 integrin binding (αvβ5 integrin) | direct cell binding [1] | actin ring formation (mature osteoclasts) | relative cell binding ([1]; no induction of differentiation (t=0))
B1 | 4.24 is the best αvβ5 integrin followed by 4.22 and 5.6 | binding in a dose dependent manner | showed the same phenotype as cRGD and M-CSFαvβ3 | –
B2 | – | binding in a dose dependent manner | – | stronger cell binding than 5.6 and 4.22
